Patent publication US12129308 (Merck KGaA, dated 2024)

Tests used:
[1] = biological target: activated dog MMP13 (dog, UniProt P45452 104-471 (human entry)); experiment: cell-based or functional assay
[2] = biological target: bovine MMP13 (bovine, UniProt O77656 104-471); experiment: cell-based or functional assay
[3] = biological target: activated rat MMP13 (rat, UniProt P23097 99-466); experiment: cell-based or functional assay
[4] = biological target: T1, activated human MMP13 (human, UniProt P45452 104-471); experiment: cell-based or functional assay
[5] = biological target: cynomolgus MMP13 (cynomolgus, UniProt A0A2K5U988 104-471); experiment: cell-based or functional assay
[6] = biological target: T2, activated MMP13 (species not stated) (Homo sapiens (Human), UniProt P45452 104-471, Biotinylated in the TIMP-2 competition ELISA (sites not given). Activated form: pro-peptide removed.); experiment: TIMP-2 competition ELISA; Nanobody pre-incubated with 1.26 nM activated MMP13-biotin, binding to captured TIMP-2
T2 construct: campaign 4 ELISA; Probably human

[7] = biological target: T1, activated human MMP13; experiment: cell-based or functional assay; remark: listed apart in the source

B1: C0101PMP520C04 (VHH)
VHH: DVQLVESGGGLVQPGGSLRLSCAASGRTFSSYAMGWFRQAPGKEREFVAAISWSGGSTYYSDSVKGRFTISRDNSKNTVYLQMNSLRPEDTAVYYCTAARGGVAGTDGPLGDYNYWGQGTLVTVSS
notes: Profile 2 Nanobody
- IC50, dog fluorogenic peptide assay [1]: 10.5 nM
- IC50, bovine fluorogenic peptide assay [2]: 27.9 nM
- IC50, rat fluorogenic peptide assay [3]: 5.6 nM
- IC50, human fluorogenic collagen assay [4]: 31.5 nM
- IC50, human fluorogenic peptide assay [4]: 13.7 nM
- IC50, cyno fluorogenic peptide assay [5]: 32.5 nM
- IC50 [6]: 8 nM

B2: C0101PMP059F06 (VHH)
VHH: EVQLVESEGGTVEPGESLRLACAAPGPGIRTNFMAWYRQAPEKEREMVASISRDGSTHYADSVKGRFTISSDNATSTFYLQMNSLQVEDTAVYYCATDPHILHNDRAGAFLVEDYDHWGQGTQVTVSS
notes: Profile 2 Nanobody
- IC50, dog fluorogenic peptide assay [1]: 82.6 nM
- IC50, bovine fluorogenic peptide assay [2]: 108 nM
- IC50, rat fluorogenic peptide assay [3]: 38.9 nM
- IC50, human fluorogenic collagen assay [4]: 140 nM
- IC50, human fluorogenic peptide assay [4]: 56.3 nM
- IC50, cyno fluorogenic peptide assay [5]: 48.5 nM
- IC50 [6]: 51.8 nM

B3: C0101PMP525C04 (VHH)
VHH: DVQLVESGGGLVQPGGSLRLSCAGSGSIFSGNAMGWYRQAPGKQRELVAAITSGGVTNYADSVKGRFTISRDNSKNTVYLQMNSLRPEDTAVYYCAADIRYPTGLVGDYWGQGTLVTVSS
notes: Profile 2 Nanobody
- IC50, dog fluorogenic peptide assay [1]: 90.8 nM
- IC50, bovine fluorogenic peptide assay [2]: 108 nM
- IC50, rat fluorogenic peptide assay [3]: 157 nM
- IC50, human fluorogenic collagen assay [4]: 90.5 nM
- IC50, human fluorogenic peptide assay [4]: 58 nM
- IC50, cyno fluorogenic peptide assay [5]: 32.5 nM
- IC50 [6]: 36.2 nM

B4: C010100689 (bispecific antibody)
chain: EVQLVESGGGLVQPGGSLRLSCAASGFAFSAAYMSWVRQAPGKGLEWVSSISDDGSKTYYADSVKGRFTISRDNSKNTVYLQMNSLRPEDTAVYYCNTGYGATTTRPGRYWGQGTLVTVSSGGGGSGGGGSGGGGSGGGGSGGGGSGGGGSGGGGSEVQLVESGGGLVQPGGSLRLSCAASGSTFIINVVRWYRRAPGKQRELVATISSGGNANYVDSVRGRFTISRDNSKNTVYLQMNSLRPEDTAVYYCNVPTTHYGGVYYGPYWGQGTLVTVSS
- potency, human fluorogenic peptide assay [7]: 1.91 nM

B5: C010100692 (bispecific antibody)
chain: EVQLVESGGGLVQPGGSLRLSCAASGFAFSAAYMSWVRQAPGKGLEWVSSISDDGSKTYYADSVKGRFTISRDNSKNTVYLQMNSLRPEDTAVYYCNTGYGATTTRPGRYWGQGTLVTVSSGGGGSGGGGSGGGGSGGGGSGGGGSGGGGSGGGGSEVQLVESGGGLVQPGGSLRLSCAASGRTFSSYTMGWFRQAPGKEREFVAAISWSGGRTYYADSVKGRFTISRDNSKNTVYLQMNSLRPEDTAVYYCAAYRRRRASSNRGLWDYWGQGTLVTVSS
- potency, human fluorogenic peptide assay [7]: 0.828 nM

B6: C010100280 (VHH)
VHH: EVQLVESGGGLVQPGGSLRLSCAASGFAFSAAYMSWVRQAPGKGLEWVSSISDDGSKTYYADSVKGRFTISRDNSKNTVYLQMNSLRPEDTAVYYCNTGYGATTTRPGRYWGQGTLVTVSS
- potency, human fluorogenic peptide assay [7]: 1.01 nM

B7: C010100687 (bispecific antibody)
chain: EVQLVESGGGLVQPGGSLRLSCAASGFTLAYYSIGWFRQAPGKEREGVSCISSGIDGSTYYADSVKGRFTISRDNAKNTMYLQMNNLKPEDTGVYYCAADPSHYYSEYDCGYYGMDYWGKGTLVTVSSGGGGSGGGGSGGGGSGGGGSGGGGSGGGGSGGGGSEVQLVESGGGLVQPGGSLRLSCAASGSTFIINVVRWYRRAPGKQRELVATISSGGNANYVDSVRGRFTISRDNSKNTVYLQMNSLRPEDTAVYYCNVPTTHYGGVYYGPYWGQGTLVTVSS
- potency, human fluorogenic peptide assay [7]: 1.57 nM

B8: C010100101 (VHH)
VHH: EVQLVESGGGLVQPGGSLRLSCAASGFTLAYYSIGWFRQAPGKEREGVSCISSGIDGSTYYADSVKGRFTISRDNAKNTMYLQMNNLKPEDTGVYYCAADPSHYYSEYDCGYYGMDYWGKGTLVTVSS
- potency, human fluorogenic peptide assay [7]: 3.92 nM

B9: C010100700 (bispecific antibody)
chain: EVQLVESGGGLVQPGGSLRLSCAASGRTFSSYAMGWFRQAPGKEREFVAAISWSGGSTYYADSVKGRFTISRDNSKNTVYLQMNSLRPEDTAVYYCTAALAVYGPSRYRYGPVGEYQYWGQGTLVTVSSGGGGSGGGGSGGGGSGGGGSGGGGSGGGGSGGGGSEVQLVESGGGSVQPGGSLRLSCAASGSTFSRYSMNWYRQAPGKQREFVAGISVGRITNYAVSVRGRFTISRDNSEGTGYLQMNSLRPEDTAVYYCNAGGLQGYWGLGTLVTVSSGGGGSGGGGSGGGGSGGGGSGGGGSGGGGSGGGGSEVQLVESGGGLVQPGGSLRLSCAASGSTFIINVVRWYRRAPGKQRELVATISSGGNANYVDSVRGRFTISRDNSKNTVYLQMNSLRPEDTAVYYCNVPTTHYGGVYYGPYWGQGTLVTVSS
- potency, human fluorogenic peptide assay [7]: 0.0318 nM

B10: C010100696 (bispecific antibody)
chain: EVQLVESGGGLVQPGGSLRLSCAASGRTFSSYAMGWFRQAPGKEREFVAAISWSGGSTYYADSVKGRFTISRDNSKNTVYLQMNSLRPEDTAVYYCTAALAVYGPSRYRYGPVGEYQYWGQGTLVTVSSGGGGSGGGGSGGGGSGGGGSGGGGSGGGGSGGGGSEVQLVESGGGSVQPGGSLRLSCAASGSTFSRYSMNWYRQAPGKQREFVAGISVGRITNYAVSVRGRFTISRDNSEGTGYLQMNSLRPEDTAVYYCNAGGLQGYWGLGTLVTVSSGGGGSGGGGSGGGGSGGGGSGGGGSGGGGSGGGGSEVQLVESGGGLVQPGGSLRLSCAASGRTFSSYTMGWFRQAPGKEREFVAAISWSGGRTYYADSVKGRFTISRDNSKNTVYLQMNSLRPEDTAVYYCAAYRRRRASSNRGLWDYWGQGTLVTVSS
- potency, human fluorogenic peptide assay [7]: 0.107 nM

B11: C010100726 (bispecific antibody)
chain: EVQLVESGGGLVQPGGSLRLSCAASGRTFSSYAMGWFRQAPGKEREFVAAISWSGGSTYYADSVKGRFTISRDNSKNTVYLQMNSLRPEDTAVYYCTAALAVYGPSRYRYGPVGEYQYWGQGTLVTVSSGGGGSGGGGSGGGGSGGGGSGGGGSGGGGSGGGGSEVQLVESGGGLVQPGGSLRLSCAASGSTFSRYSMNWYRQAPGKQREFVAGISVGRITNYAVSVKGRFTISRDNSKNTVYLQMNSLRPEDTAVYYCNAGGLQGYWGQGTLVTVSS
- potency, human fluorogenic peptide assay [7]: 0.0671 nM

B12: C010100727 (bispecific antibody)
chain: EVQLVESGGGLVQPGGSLRLSCAASGRTFSSYAMGWFRQAPGKEREFVAAISWSGGSTYYADSVKGRFTISRDNSKNTVYLQMNSLRPEDTAVYYCTAALAVYGPSRYRYGPVGEYQYWGQGTLVTVSSGGGGSGGGGSGGGGSGGGGSGGGGSGGGGSGGGGSEVQLVESGGGLVQPGGSLRLSCAASGSTFSRYSMNWYRQAPGKQREFVAGISVGRITNYAVSVKGRFTISRDNSKNTGYLQMNSLRPEDTAVYYCNAGGLQGYWGQGTLVTVSS
- potency, human fluorogenic peptide assay [7]: 0.134 nM

B13: C010100080 (bispecific antibody)
chain: EVQLVESGGGLVQPGGSLRLSCAASGRTFSSYAMGWFRQAPGKEREFVAAISWSGGSTYYADSVKGRFTISRDNSKNTVYLQMNSLRPEDTAVYYCTAALAVYGPNRYRYGPVGEYNYWGQGTLVTVSSGGGGSGGGGSGGGGSGGGGSGGGGSGGGGSGGGGSEVQLVESGGGSVQAGGSLRLSCAASGSTFSRYSMNWYRQAPGKQREFVAGISVGRITNYAVSVRGRFTISRDNAEGTGYLQMNSLKPEDTAVYYCNAGGLQGYWGLGTLVTVSSGAADYKDHDGDYKDHDIDYKDDDDKGAAHHHHHH
- potency, human fluorogenic peptide assay [7]: 0.488 nM

B14: C010100688 (bispecific antibody)
chain: EVQLVESGGGLVQPGGSLRLSCAASGSIFSINAMGWYRQAPGKQRELVAAISSGGSTYYADSVKGRFTISRDNSKNTVYLQMNSLRPEDTAVYYCNAAVDASRGLPYELYYYWGQGTLVTVSSGGGGSGGGGSGGGGSGGGGSGGGGSGGGGSGGGGSEVQLVESGGGLVQPGGSLRLSCAASGSTFIINVVRWYRRAPGKQRELVATISSGGNANYVDSVRGRFTISRDNSKNTVYLQMNSLRPEDTAVYYCNVPTTHYGGVYYGPYWGQGTLVTVSS
- potency, human fluorogenic peptide assay [7]: 0.927 nM

B15: C010100691 (bispecific antibody)
chain: EVQLVESGGGLVQPGGSLRLSCAASGSIFSINAMGWYRQAPGKQRELVAAISSGGSTYYADSVKGRFTISRDNSKNTVYLQMNSLRPEDTAVYYCNAAVDASRGLPYELYYYWGQGTLVTVSSGGGGSGGGGSGGGGSGGGGSGGGGSGGGGSGGGGSEVQLVESGGGLVQPGGSLRLSCAASGRTFSSYTMGWFRQAPGKEREFVAAISWSGGRTYYADSVKGRFTISRDNSKNTVYLQMNSLRPEDTAVYYCAAYRRRRASSNRGLWDYWGQGTLVTVSS
- potency, human fluorogenic peptide assay [7]: 0.484 nM

B16: C010100170 (VHH)
VHH: EVQLVESGGGLVQPGGSLRLSCAASGSIFSINAMGWYRQAPGKQRELVAAISSGGSTYYADSVKGRFTISRDNSKNTVYLQMNSLRPEDTAVYYCNAAVDASRGLPYELYYYWGQGTLVTVSS
- potency, human fluorogenic peptide assay [7]: 0.608 nM

B17: C0101PMP080A01 (VHH)
VHH: EVQLVESGGGLVQPGGSLRLSCAASGFTLAYYSIGWFRQAPGKEREGVSCISSGIDGSTYYADSVKGRFTISRDNAKNTMYLQMNNLKPEDTGVYYCAADPSHYYSEYDCGYYGMDYWGKGTLVTVSS
- IC50, dog fluorogenic peptide assay [1]: 6 nM
- IC50, bovine fluorogenic peptide assay [2]: 6.4 nM
- IC50, rat fluorogenic peptide assay [3]: 4.2 nM
- IC50, human fluorogenic collagen assay [4]: 10.8 nM
- IC50, human fluorogenic peptide assay [4]: 5.2 nM
- IC50, cyno fluorogenic peptide assay [5]: 2.9 nM

B18: C0101PMP513C04 (VHH)
VHH: DVQLVESGGGLVQPGGSLRLSCAASGRTFSRYVMGWFRQAPGKEREFVAAINWSSGSTYYADSVKGRFTISRDNSKNTVYLQMNSLRPEDTAVYYCAADRRVYYDTYPNLRGYDYWGQGTLVTVSS
- IC50, dog fluorogenic peptide assay [1]: 35.2 nM
- IC50, bovine fluorogenic peptide assay [2]: 48.7 nM
- IC50, rat fluorogenic peptide assay [3]: 16.2 nM
- IC50, human fluorogenic collagen assay [4]: 18.1 nM
- IC50, human fluorogenic peptide assay [4]: 7.7 nM
- IC50, cyno fluorogenic peptide assay [5]: 8 nM
